Data on six molecules can be found in patent US20170296650A1 (Novartis, published 2017).

Substitutions are numbered along the chain they refer to.

The target in test [1] is T1, hCMV gH + gL + UL128 + UL130 + UL131A (5-member complex; HEK293T co-transfectant) (hCMV, UniProt P12824 24-743; P16832 31-278; P16837 1-171; P16772 1-214).
T1 construct: whole, on cells; in the functional rows it stands for the complex on virions or transduced cells of the strain or isolate named in the readout; also called gH/gL/UL128-131A complex; pentameric complex
As to the kind of experiment: cell competition; competitor 6G4-biotin.

The target in test [2] is T2, hCMV UL128 (HEK293T transfectant) (hCMV, UniProt P16837 28-171).
T2 sequence: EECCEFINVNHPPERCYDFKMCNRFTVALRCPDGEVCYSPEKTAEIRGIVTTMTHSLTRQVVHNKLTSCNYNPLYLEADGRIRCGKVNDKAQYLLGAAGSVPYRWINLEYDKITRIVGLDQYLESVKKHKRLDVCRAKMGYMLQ
As to the kind of experiment: cell-based or functional assay.

The target in test [3] is T1, hCMV gH + gL + UL128 + UL130 + UL131A …. Kind of test: cell competition; competitor 5A2-biotin.
The target is the same in test [4]. As to the kind of experiment: cell competition; competitor 4I22-biotin.
For test [5] the target is unchanged. As to the kind of experiment: cell competition; competitor 1F11-biotin.
The target is the same in test [6]. Kind of test: cell competition; competitor 10F7-biotin.
The target in test [7] is T2, hCMV UL128 (HEK293T transfectant). Kind of test: cell-based or functional assay. The source holds these as a separate data set.
The target of test [8] is T1, hCMV gH + gL + UL128 + UL130 + UL131A …. Kind of test: cell competition; competitor 15D8-biotin.
Test [9] has the same target. As to the kind of experiment: cell competition; competitor 8I21-biotin.
For test [10] the target is unchanged. Kind of test: cell competition; competitor 2C12-biotin.
Test [11] shares this target. Kind of test: cell competition; competitor 2F4-biotin.
The target is the same in test [12]. Kind of test: cell competition; competitor 4N10-biotin.
Test [13] addresses T3, hCMV glycoprotein B (gB; HEK293T transfectant) (hCMV, UniProt P06473 32-906). Kind of test: cell-based or functional assay.
Test [14] has as its target T3, hCMV glycoprotein B (gB; HEK293T …). As to the kind of experiment: cell competition; competitor 6B4-biotin.
Test [15] has the same target. As to the kind of experiment: cell competition; competitor 4H9-biotin.
Test [16] has the same target. As to the kind of experiment: cell competition; competitor 2B11-biotin.
Test [17] has the same target. As to the kind of experiment: cell competition; competitor 7H3-biotin.
For test [18] the target is unchanged. Kind of test: cell-based or functional assay. This is another data set of the same source.
The target is the same in test [19]. Kind of test: cell competition; competitor 10C6-biotin.
Test [20] shares this target. Kind of test: cell competition; competitor 5F1-biotin.
The target is the same in test [21]. As to the kind of experiment: cell-based or functional assay. This is another data set of the same source.

T3 sequence (P06473 32-906 limits assumed): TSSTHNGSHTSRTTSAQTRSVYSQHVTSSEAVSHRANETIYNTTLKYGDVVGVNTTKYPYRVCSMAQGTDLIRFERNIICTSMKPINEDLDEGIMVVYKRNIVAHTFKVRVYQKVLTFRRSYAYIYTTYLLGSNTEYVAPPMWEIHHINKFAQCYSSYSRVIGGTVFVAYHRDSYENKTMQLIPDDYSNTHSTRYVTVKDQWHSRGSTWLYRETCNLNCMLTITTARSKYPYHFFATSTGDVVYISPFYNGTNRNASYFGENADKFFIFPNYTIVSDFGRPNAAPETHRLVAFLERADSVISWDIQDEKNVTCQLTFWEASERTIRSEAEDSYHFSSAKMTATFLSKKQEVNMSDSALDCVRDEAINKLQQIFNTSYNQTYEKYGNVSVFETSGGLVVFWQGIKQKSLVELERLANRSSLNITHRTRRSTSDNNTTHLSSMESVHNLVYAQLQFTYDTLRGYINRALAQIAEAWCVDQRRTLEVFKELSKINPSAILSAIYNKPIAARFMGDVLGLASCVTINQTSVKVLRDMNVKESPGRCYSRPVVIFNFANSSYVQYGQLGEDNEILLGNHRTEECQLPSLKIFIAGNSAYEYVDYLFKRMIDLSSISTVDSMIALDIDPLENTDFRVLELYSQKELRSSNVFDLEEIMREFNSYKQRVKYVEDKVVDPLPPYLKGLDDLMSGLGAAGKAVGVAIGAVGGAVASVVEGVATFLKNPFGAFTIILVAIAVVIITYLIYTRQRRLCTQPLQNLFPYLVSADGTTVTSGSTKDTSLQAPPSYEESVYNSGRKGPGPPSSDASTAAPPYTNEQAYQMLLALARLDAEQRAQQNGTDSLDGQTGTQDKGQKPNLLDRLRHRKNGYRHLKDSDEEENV

B1: 15D8 (antibody, V domains shown)
VH: EVQLVQSGAEVKKPGESLKISCQASGYSFTNYWIAWVRQMPGKGLEWMGIIYPGDSDIKYSPSFRGQVTISADKSISNAFLQWRSLRASDTAMYYCARHAIRGDGFDYWGQGTLVTVSS
VL: SYELTQPPSVSVSPGQTATITCSGDKLGEKYACWYQQKPGQSPVLVMYQDTKRPSGIPERFSGSNSGNTATLTISGTRAMDEADYYCQAWDTNTVIFGGGTKLTVL
notes: human IgG; also called 15D8-biotin
In the case of B1, the “Inhibition of binding (%)” value in test [1] stood at 0%; in [3] it was 0%; in test [4], 0%; in test [5], 0%; in test [6], 0%; in test [8] it was 100%. For the same molecule, the “Inhibition of binding (%)” value in [9], in test [10], in [11] and in test [12] was 0% in each case. Moreover, the “50% neutralization VR1814, ARPE” value in test [2] was less than 0.001 µg/mL. Further, the “50% neutralization VR1814, MRC-9” value in [2] was greater than 2 µg/mL. The “90% neutralization VR1814, ARPE” value in test [7] is 0.008 µg/mL. In test [7], the “90% neutralization VR1814, MRC-9” value was greater than 10 µg/mL.

B2: 4H9 (antibody, V domains shown)
VH: AVQLVESGGGLVRPGGSLRLSCAASGFTFSSHEMHWVRQAPGKGLEWLSYIDFTGSIIYYADSVRGRFTISRDNTKKSLFLQMNSLRDEDTALYYCARDGGRWGTSWYYFDYWGQGVLVTVSS
VL: QSVLTQPPSVSGAPGQRVTITCTGSSSNFGAGYDGHWYQQLPGTAPKLLIYGSNRPSGVPDRFSGSKSGTSVSLAITGLQADDEADYYCQSYDSSLSAWVFGGGTKLTVL
notes: human IgG; also called 4H9-biotin; 4H9.6
On to B2, for which the “50% neutralization VR1814, ARPE” value in [13] was no more than 2 µg/mL. Moreover, the “50% neutralization VR1814, MRC-9” value in [13] is no more than 2 µg/mL. Moreover, the “Inhibition of binding (%)” value in [14] came out at 0%; in test [15], 100%; in [16], 100%; in [17] it was 0%; in test [19], 100%; in [20] it was 100%. The “90% neutralization VR1814, ARPE” value in test [18] stood at 0.4 µg/mL. Also, in test [18], the “90% neutralization VR1814, MRC-9” value turned out to be 10 µg/mL.

B3: 6B4 (antibody, V domains shown)
VH: QVQLVESGGGVVQPGRSLRLSCAASGFRFNEFNMHWVRQAPGKGLEWVAVISIDGRHKYNADSVEGRFTISRDNSRNTLYLQMNSLRVEDTALYYCVTDGKAVDGFSGILEFWGQGTPVTVST
VL: EIVLTQSPATLSLSPGERATLSCWASQSVGGYLAWYQQKPGQAPRLLIYDASIRATGIPARFSGSGSGTHFTLTINSLEPEDFAVYYCQQRNNWPPLTFGGGTKVEIK
notes: human IgG; also called 6B4-biotin
On to B3, for which, in test [13], the “50% neutralization VR1814, ARPE” value was no more than 2 µg/mL. Further, in test [13], the “50% neutralization VR1814, MRC-9” value was no more than 2 µg/mL. For the same molecule, the “Inhibition of binding (%)” value in test [14] came out at 100%; in test [15], 0%; in test [16], 0%; in test [17], 0%; in test [19], 0%; in test [20], 0%. Besides, the “50% neutralization VR1814, BM-MSC” value in test [21] is 2 µg/mL. In addition, the “50% neutralization VR1814, Mo-DC” value in test [21] was 0.11 µg/mL. Further, the “90% neutralization VR1814, ARPE” value in [18] stood at 0.15 µg/mL. In [18], the “90% neutralization VR1814, MRC-9” value was found to be 1 µg/mL.

B4: 5F1 (antibody, V domains shown)
VH: AVQLVESGGGLAQPGRSLRLSCKVSGFTFSSYEMNWVRQAPGKGLEWIAYIDFTGSTIYYADSVKGRFTISRDTARNSLYLQMNKLRVEDTAVYYCVRDAGRWGTSWYYFDYWGQGTLVTVSS
VL: QSVLTQPPSVSGAPGQRVTISCTGLSSNIGAGYDIHWYQQIPGKAPKLLIYGNNNRPSGVPDRFSGSKSGTSVSLAITGLQAEDEADYYCQSYDSSLNGWVFGGGTRLTVL
notes: human IgG; also called 5F1-biotin
Regarding B4, in [13], the “50% neutralization VR1814, ARPE” value is no more than 2 µg/mL. Further, in [13], the “50% neutralization VR1814, MRC-9” value was no more than 2 µg/mL. Moreover, the “Inhibition of binding (%)” value in test [14] amounted to 0%; in [15], 100%; in [16] it was 100%; in test [17], 0%; in test [19] it was 100%; in test [20] it was 100%. Besides, the “50% neutralization VR1814, BM-MSC” value in [21] turned out to be 0.3 µg/mL. For the same molecule, the “50% neutralization VR1814, Mo-DC” value in test [21] is 0.05 µg/mL. The “90% neutralization VR1814, ARPE” value in [18] was 0.1 µg/mL. In addition, in test [18], the “90% neutralization VR1814, MRC-9” value is 0.5 µg/mL.

B5: 2B11 (antibody, V domains shown)
VH: B4 VH with Q3R, K23Q, S30G, D73N, K85S, L118R, S123P
VL: B4 VL with L25I, I50V, A82V, S95N
notes: human IgG; also called 2B11-biotin
Regarding B5, the “Inhibition of binding (%)” value in test [14] is 0%; in test [15] it was 100%; in test [16], 100%; in test [17], 0%; in [19], 100%; in test [20], 100%. In addition, in [18], the “90% neutralization VR1814, ARPE” value turned out to be 0.2 µg/mL. In test [18], the “90% neutralization VR1814, MRC-9” value worked out at 0.75 µg/mL.

B6: 10C6 (antibody, V domains shown)
VH: B4 VH with T28S, S31N, Y32F, A61S
VL: B4 VL
notes: human IgG; also called 10C6-biotin; 1006
As for B6, the “50% neutralization VR1814, ARPE” value in test [13] was no more than 2 µg/mL. Also, the “50% neutralization VR1814, MRC-9” value in test [13] was no more than 2 µg/mL. In addition, the “Inhibition of binding (%)” value amounted to 0% in [14]; 100% in [15]; 100% in test [16]; 0% in [17]; 100% in test [19]; 100% in [20]. Further, the “50% neutralization VR1814, BM-MSC” value in [21] came to 0.3 µg/mL. The “50% neutralization VR1814, Mo-DC” value in [21] turned out to be 0.02 µg/mL. In [18], the “90% neutralization VR1814, ARPE” value was found to be 0.2 µg/mL. Also, the “90% neutralization VR1814, MRC-9” value in test [18] came to 0.75 µg/mL.
